In patent US20250152627A1 (published 2025):

B1: BT4244-35 aa Linker-EE Zip (enzyme)
chain: FSISEEYLIQNLDKSSTSVQIPINTSMELAQWSVSYEANWLQCSKQKTAAEGTFLRITVNENTGETKRTANIKVTSTTATYTITVNQYAKGEVIVEGDIKVTPTGGKASEHQEGQDIENTYDGKFSTDGAAPFHTPWGQSAKFPVTLEYYFKGDTEIDYLIYYTRSGNGNFGKVKVYTTTNPDRSDYTLQGEYDFKEQNAPSKVSFSEGIKATGIKFEVLSGLGDFVSCDEMEFYKTNTDKTLDKQLLTVFTDITCTEIKNNVTNEQIQALPDYFVRIAEAVRDNTYDKWEKEFRIRSYEPYSNIAEWADKLMTKKYSDLDNPTGISVKAGDDIIVLVGDTYGQNISMQCIWETGTEYKQTASSGDVYMLNPGVNKLTMKGEGQLFVMYNTELTSNTAKPIKIHIPLGSGTVNGFFDLKEHKTDEKYAELLKKSTHKYFCIRGEKIMFYFHRNKLLEYVPNNILSAIHLWDNIVGWQQELMGIDDVRPSQVNNHLFAISPEGSYMWASDYQIGFVYTYLGNILLEDNVMAAEDNAWGPAHEIGHVHQAAINWASSTESSNNLFSNFIIYKLGKYKSRGNGLGSVATARYANGQAWYNMGDATHQNEDTETHMRMNWQLWIYYHRCEYKTDFWQTLFKLMREVNMTEGEDPGKKQLEFAKMASKAANQNLTDFFEMWGFFEPVNTTIEQYGTYKYYVSDAMIREAKEYMAQFPAPKHAFQYIEDRKKSEFPSNDYRYSAVGDVGYYTQFKENQKITKAITAELAGRKVSIQNGDEAVAFELRENDENGKLLYFSTFTTFEIPSSILMGGGGSGGGGSGGGGSGGGGSGGGGSGGGGSGGGGSMDPDLEIEAAFLERENTALETRVAELRQRVQRLRNRVSQYRTRYGPLGGGK
B2: AM0627-35 aa Linker-EE Zip (enzyme)
chain: ANTPEHIGNDLKLFKDSSCTSLKPDVKNTSAFQSDAMKELATKILAGHYKPDYLYAEYRALPSPRQTGKNLRIGDGFSKYDNMTGVYLEKGRHVVLVGKTEGQEISLLLPNLMRKPAEGVQPTKDPNGWGLHKKQIPLKEGINIIDVETPANAYISYFTEDAGKAPKIPVHFVTGKANGYFDTTRGDTNKDWVRLLDQAVSPIMDARGKYIQVAYPVEFLKKFTKDRGTELINAYDKLIGIQYQLMGLDKYGKIPENRVLARVNFNYYMFRDGDGVAYLGNDGTMRMVTDPENVLKGDACWGFSHEVGHVMQMRPMTWGGMTEVSNNIFSLQAAAKTGNESRLKRQGSYDKARKEIIEGEIAYLQSKDVFNKLVPLWQLHLYFTKNGHPDFYPDVMEYLRNNAGNYGGNDTVKYQFEFVKACCDVTKTDLTDFFEKWGFFKPGKFHIGDYAQYDFNVTPEMVEETKKWIAGKGYPKPETDITELSEGGGGSGGGGSGGGGSGGGGSGGGGSGGGGSGGGGSMDPDLEIEAAFLERENTALETRVAELRQRVQRLRNRVSQYRTRYGPLGGGK
B3: StcE ΔX409-35 aa Linker-EE Zip (enzyme)
chain: ADNNSAIYFNTSQPINDLQGSLAAEVKFAQSQILPAHPKEGDSQPHLTSLRKSLLLVRPVKADDKTPVQVEARDDNNKILGTLTLYPPSSLPDTIYHLDGVPEGGIDFTPHNGTKKIINTVAEVNKLSDASGSSIHSHLTNNALVEIHTANGRWVRDIYLPQGPDLEGKMVRFVSSAGYSSTVFYGDRKVTLSVGNTLLFKYVNGQWFRSGELENNRITYAQHIWSAELPAHWIVPGLNLVIKQGNLSGRLNDIKIGAPGELLLHTIDIGMLTTPRDRFDFAKDKEAHREYFQTIPVSRMIVNNYAPLHLKEVMLPTGELLTDMDPGNGGWHSGTMRQRIGKELVSHGIDNANYGLNSTAGLGENSHPYVVAQLAAHNSRGNYANGIQVHGGSGGGGIVTLDSTLGNEFSHEVGHNYGLGHYVDGFKGSVHRSAENNNSTWGWDGDKKRFIPNFYPSQTNEKSCLNNQCQEPFDGHKFGFDAMAGGSPFSAANRFTMYTPNSSAIIQRFFENKAVFDSRSSTGFSKWNADTQEMEPYEHTIDRAEQITASVNELSESKMAELMAEYAVVKVHMWNGNWTRNIYIPTASADNRGSILTINHEAGYNSYLFINGDEKVVSQGYKKSFVSDGQFWKERDVVDTREARKPEQFGVPVTTLVGYYDPEGTLSSYIYPAMYGAYGFTYSDDSQNLSDNDCQLQVDTKEGQLRFRLANHRANNTVMNKFHINVPTESQPTQATLVCNNKILDTKSLTPAPEGLTYTVNGGGGSGGGGSGGGGSGGGGSGGGGSGGGGSGGGGSMDPDLEIEAAFLERENTALETRVAELRQRVQRLRNRVSQYRTRYGPLGGGK

How the values were obtained:
[1] = target: IgK leader-ALFA Tag-RR Zip-Myc Tag-PDGFRβ TM-sfGFP; test: flow cytometry cell binding
[2] = target: IgK leader-ALFA Tag-RR Zip-Myc Tag-PDGFRβ TM-sfGFP; test: flow

| Binder | Kd [1] | Kd [2] |
| --- | --- | --- |
| B1 | ~2.54 nM |  |
| B2 | ~0.45 nM |  |
| B3 |  | ~3.09 nM |
